Source: patent US20170240629A1 (Hoffmann-La Roche, published 2017)

Tests used:
human IL-1beta [1] = target: T1, human IL-1beta (human, UniProt P01584 117-269); experiment: SPR (BIAcore); antibody captured by anti-Fc, IL-1beta injected
Protocol: (§1) All experiments were performed at 25° C. using HBS-P (10 mM His, 140 mM NaCl, 0.05% Tween 20 pH 7.4) as running and dilution buffer. Anti-human or anti-mouse Fc antibodies were immobilized on a Series S CM5 Sensor Chip (GE Healthcare) using standard amine coupling chemistry. […] The dissociation phase was monitored for 600 sec by washing with running buffer. […] The surface was regenerated by injecting 3 M MgCl2 (for anti-human Fc antibody) or 10 mM Glycine pH 1.5 (for anti-mouse Fc antibody) for 60 sec at a flow rate of 5 μl/min. Bulk refractive index differences were corrected by subtracting the response obtained from a mock surface. Blank injections were subtracted (double referencing). The derived curves were fitted to a 1:1 Langmuir binding model using the BIAevaluation software.

human IL-1beta [2] = target: T1, human IL-1beta; experiment: ELISA, human IL-1beta (Peprotech) coated, Example 4 variant 1
Protocol: (§2) The binding analysis was carried out using an enzyme-linked immunosorbent assay (ELISA)-based technology. […] The EC₅₀ was calculated with a four parameter logistic model using GraphPad Prism 6.0 software.

murine IL-1beta [3] = target: T2, murine IL-1beta (murine, UniProt P10749 118-269); experiment: ELISA, murine IL-1beta coated, Example 6
Protocol: as §2

cynomolgus IL-1beta [4] = target: T3, cynomolgus IL-1beta (cynomolgus, UniProt P79182 117-268); experiment: ELISA, cynomolgus IL-1beta coated, Example 5
Protocol: as §2

murine IL-1beta [5] = target: T2, murine IL-1beta; experiment: SPR (BIAcore); antibody captured by anti-Fc, IL-1beta injected
Protocol: as §1

[6] = target: T4, His-tagged human IL-1beta (human, UniProt P01584 117-269); experiment: competition ELISA, His-tagged IL-1beta coated; competitor Fc-tagged human IL-1 receptor type I (Example 7); IL-1beta receptor I (example 7)
T4 construct: also called human His-tagged IL-1beta protein (Sino Biologics 10139-H07E); not shown: His tag

human IL-1beta [7] = target: T1, human IL-1beta; experiment: SPR inhibition; 10 nM human IL-1beta pre-incubated with antibody, injected over immobilised human IL-1RI (competitor)
Protocol: All experiments were performed at 25° C. using HBS-P (10 mM His, 140 mM NaCl, 0.05% Tween 20 pH 7.4) as running and dilution buffer. Human IL-1RI was immobilized on a Series S CM5 Sensor Chip (GE Healthcare) using standard amine coupling chemistry. […] The surface was regenerated by injecting 10 mM NaOH for 60 sec at a flow rate of 5 μl/min. Bulk refractive index differences were corrected by subtracting the response obtained from a mock surface.

rat IL-1beta = rat IL-1beta (rat, UniProt Q63264 117-268); experiment: SPR (BIAcore); antibody captured by anti-Fc, IL-1beta injected
rat IL-1beta, sequence (Q63264 117-268 limits assumed): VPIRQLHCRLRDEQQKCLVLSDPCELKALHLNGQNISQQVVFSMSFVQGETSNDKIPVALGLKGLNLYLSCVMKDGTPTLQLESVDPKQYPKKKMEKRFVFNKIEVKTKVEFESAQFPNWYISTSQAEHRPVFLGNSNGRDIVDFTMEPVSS
Protocol: as §1

human IL-1beta [8] = target: T1, human IL-1beta; experiment: ELISA, human IL-1beta (Peprotech) coated, Example 4 variant 1; based on MW 150 kDa
Protocol: as §2

murine IL-1beta [9] = target: T2, murine IL-1beta; experiment: ELISA, murine IL-1beta coated, Example 6; based on MW 150 kDa
Protocol: as §2

rabbit IL-1beta = rabbit IL-1beta (rabbit, UniProt P14628 117-268, limits assumed); experiment: SPR (BIAcore)
rabbit IL-1beta, sequence (P14628 117-268 limits assumed): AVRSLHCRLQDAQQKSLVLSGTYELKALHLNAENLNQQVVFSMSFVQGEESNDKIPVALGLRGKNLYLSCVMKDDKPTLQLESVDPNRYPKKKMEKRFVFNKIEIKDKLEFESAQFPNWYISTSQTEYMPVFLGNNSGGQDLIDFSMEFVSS

[10] = target: T4, His-tagged human IL-1beta; experiment: ELISA, His-tagged human IL-1beta coated, Example 4 variant 2; based on MW 150 kDa
Protocol: as §2

cynomolgus IL-1beta [11] = target: T3, cynomolgus IL-1beta; experiment: SPR (BIAcore); antibody captured by anti-Fc, IL-1beta injected
Protocol: as §1

human IL-1beta [12] = target: T1, human IL-1beta; experiment: cell-based or functional assay
[13] = target: T4, His-tagged human IL-1beta; experiment: competition ELISA, His-tagged IL-1beta coated; competitor Fc-tagged human IL-1 receptor type II (Example 8); IL-1beta receptor II (example 8)
Protocol: (§3) The IC₅₀ was calculated with a four parameter logistic model using GraphPad Prism 6.0 software.

cynomolgus IL-1beta [14] = target: T3, cynomolgus IL-1beta; experiment: ELISA, cynomolgus IL-1beta coated, Example 5; based on MW 150 kDa
Protocol: as §2

[15] = target: T4, His-tagged human IL-1beta; experiment: ELISA, His-tagged human IL-1beta coated, Example 4 variant 2
Protocol: as §2

human IL-1beta [16] = target: T1, human IL-1beta; experiment: cell-based or functional assay; remark: listed apart in the source
human IL-1beta [17] = target: T1, human IL-1beta; experiment: cell-based or functional assay; remark: listed apart in the source
[18] = target: T4, His-tagged human IL-1beta; experiment: competition ELISA, His-tagged IL-1beta coated; competitor Fc-tagged human IL-1 receptor type I (Example 7); based on MW 150 kDa
Protocol: as §3

[19] = target: T4, His-tagged human IL-1beta; experiment: competition ELISA, His-tagged IL-1beta coated; competitor Fc-tagged human IL-1 receptor type II (Example 8); based on MW 150 kDa
Protocol: as §3

T2 sequence (P10749 118-269 limits assumed): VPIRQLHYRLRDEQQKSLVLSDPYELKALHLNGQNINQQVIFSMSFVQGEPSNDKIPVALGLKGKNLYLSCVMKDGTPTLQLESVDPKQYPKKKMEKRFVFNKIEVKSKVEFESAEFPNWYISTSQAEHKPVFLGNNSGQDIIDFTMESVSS

Kd (human IL-1beta [1]): 0.07 nM
koff (human IL-1beta [1]): 7.5e-05 s⁻¹
kon (human IL-1beta [1]): 1.12e+06 M⁻¹ s⁻¹
EC50 (human IL-1beta [2]): 0.034 mg/L
EC50 (murine IL-1beta [3]): 0.0231 mg/L
EC50 (cynomolgus IL-1beta [4]): 0.0213 mg/L
Kd (murine IL-1beta [5]): 0.49 nM
koff (murine IL-1beta [5]): 0.00122 s⁻¹
kon (murine IL-1beta [5]): 2.47e+06 M⁻¹ s⁻¹
IC50 [6]: 0.231 mg/L
IC50 (human IL-1beta [7]): 2.5 nM
Kd (rat IL-1beta): 0.31 nM
koff (rat IL-1beta): 0.000636 s⁻¹
kon (rat IL-1beta): 2.04e+06 M⁻¹ s⁻¹
EC50 (human IL-1beta [8]): 0.227 nM
EC50 (murine IL-1beta [9]): 0.154 nM
Kd (rabbit IL-1beta): 1.4 nM
EC50 [10]: 0.101 nM
Kd (cynomolgus IL-1beta [11]): 0.08 nM
koff (cynomolgus IL-1beta [11]): 9.5e-05 s⁻¹
kon (cynomolgus IL-1beta [11]): 1.15e+06 M⁻¹ s⁻¹
EC50, reduction of IL-6 expression upon IL-1beta stimulation of A549 cells (human IL-1beta [12]): 1.09 nM
IC50 [13]: 0.132 mg/L
EC50 (cynomolgus IL-1beta [14]): 0.142 nM
EC50 [15]: 0.0152 mg/L
IC50, inhibition of ICAM-1 expression upon IL-1beta stimulation of HUVEC cells (human IL-1beta [16]): 16.5 nM
IC50, inhibition of ICAM-1 expression upon IL-1beta stimulation of A549 cells (human IL-1beta [17]): 0.7 nM
IC50 [18]: 1.54 nM
IC50 [19]: 0.88 nM
B1: IL-1beta-mumAb (antibody, V domains shown)
VH: EVQLQQSGPELEKPGASVKISCKASGYSFTDYNMNWVRQSNGKSLEWIGNIDPYYGGTTYNQKFKDKATLTVDKSSSTAYMQLKSLTSEDSAVYYCAREGSPTRYYVMDYWGQGTSVTVSS
VL: DIQMTQSPASLSASVGETVTITCRASENIYSNLAWYQQKQGKSPQLLVYAATNLADGVPSRFSGSGSGTQFSLKINSLQPEDFGSYYCHHFYNTPWTFGGGTKLEIK
notes: Murine antibody; also called murine anti-human IL-1beta antibody
